The numbers were not newly measured in paper PMC2805756, which cites them from elsewhere.

In general, pKa refers to the negative logarithm of the acid dissociation constant.

The target in the series is His107 (UniProt position 107, SSGMIHLLVQV). In words: kinetics. The note with it: free wild-type enzyme (thiolate-imidazolium ion pair).

For “Arylamine N-acetyltransferase 2 (hamster NAT2), wild type (Mesocricetus auratus (the article says only 'hamster'))”, the pKa is on record as over 9.5.
